This passage reports stoichiometry N results from paper PMC8331139.

As a reminder, the stoichiometry N is the number of molecules, sites or subunits per partner or assembly.

Test [1] addresses FCPII-S, trimeric fucoxanthin chlorophyll a/c protein antenna of PSII (Thalassiosira pseudonana (endogenous)). The test can be described thus: cryo-EM structure; cryo-electron tomography of unstacked thylakoid membrane vesicles with sub-volume averaging (EMAN2); complexes in situ in the membrane; 578 PSII and 374 PSI sub-volumes; resolution 4.2 nm (PSII) and 3.3 nm (PSI); densities assigned by rigid-body fitting of structures of other species.

Test [2] concerns the target PSII core complex of Thalassiosira pseudonana (dimeric core, C2) (Thalassiosira pseudonana (endogenous)) (UniProt A0T0N4). Described as above.

Consider “FCPII-S, trimeric fucoxanthin chlorophyll a/c protein antenna of PSII (complex)”, for which the stoichiometry N in test [1] turned out to be 3; in test [2] it was 2.

For the substance “PSII core complex of Thalassiosira pseudonana (dimeric core, C2) (from UniProt A0T0N4 1-38)”, the stoichiometry N in test [2] came out at 2.
